Values quoted from earlier work in paper PMC10990137.
pKd: −log10 of the molar value.

Target: IGF2R domain 11 (Homo sapiens) (UniProt P11717)
Settings: cited from earlier work

Sequence of IGF2R domain 11 (Homo sapiens) (P11717 1508-1650): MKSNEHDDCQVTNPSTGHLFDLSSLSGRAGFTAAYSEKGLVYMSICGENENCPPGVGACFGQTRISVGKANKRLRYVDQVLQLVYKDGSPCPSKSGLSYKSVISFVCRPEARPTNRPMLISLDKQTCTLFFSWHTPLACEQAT
Sequence of IGF2 (P01344 25-91): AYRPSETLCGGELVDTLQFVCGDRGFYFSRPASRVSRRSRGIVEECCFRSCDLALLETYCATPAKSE

IGF2 (from UniProt P01344)
pKd: 8.35
